B1: GST-PAR3 PDZ domain 3 fusion protein (other, not shown: a dimerising Fc or GST; small tags and cut ends)
chain: PREFLTFEVPLNDSGSAGLGVSVKGNRSKENHADLGIFVKSIINGGAASKDGRLRVNDQLIAVNGESLLGKTNQDAMETLRRSMSTEGNKRGMIQLIVASRISKCNELKSNSS
notes: also called PAR3 d3 (278.1); PAR3 d3
B2: GST-ZO-1 PDZ domain 2 fusion protein (other, not shown: a dimerising Fc or GST; small tags and cut ends)
chain: ISSQPAKPTKVTLVKSRKNEEYGLRLASHIFVKEISQDSLAARDGNIQEGDVVLKINGTVTENMSLTDAKTLIERSKGKLKMVVQRDRATLLNSS
notes: also called ZO-1 d2 (241.3); ZO-1 d2
B3: GST-RIM2 PDZ domain 1 fusion protein (other, not shown: a dimerising Fc or GST; small tags and cut ends)
chain: TLNEEHSHSDKHPVTWQPSKDGDRLIGRILLNKRLKDGSVPRDSGAMLGLKVVGGKMTESGRLCAFITKVKKGSLADTVGHLRPGDEVLEWNGRLLQGATFEEVYNIILESKPEPQVELVVSRPIG
notes: also called RIM-2 d1; RIM2 (177.4)

The assay addresses …. The assay can be described thus: G assay.
For the molecule B1, the binding result is “binds”. Next, B2: “binds”; B3: “binds”.

The values above are taken from US20050164933A1 (NONO, published 2005).
